For experiment [1], the target named is T1, human FLT3/FLK2 receptor protein (human, UniProt P36888 27-993).
T1 construct: whole, on cells; Cell-surface target in the flow cytometry experiments (REH cells and SP2/0-Hu-FLT3 cells); also called CD135; Hu-FLT3
T1 sequence (looked up): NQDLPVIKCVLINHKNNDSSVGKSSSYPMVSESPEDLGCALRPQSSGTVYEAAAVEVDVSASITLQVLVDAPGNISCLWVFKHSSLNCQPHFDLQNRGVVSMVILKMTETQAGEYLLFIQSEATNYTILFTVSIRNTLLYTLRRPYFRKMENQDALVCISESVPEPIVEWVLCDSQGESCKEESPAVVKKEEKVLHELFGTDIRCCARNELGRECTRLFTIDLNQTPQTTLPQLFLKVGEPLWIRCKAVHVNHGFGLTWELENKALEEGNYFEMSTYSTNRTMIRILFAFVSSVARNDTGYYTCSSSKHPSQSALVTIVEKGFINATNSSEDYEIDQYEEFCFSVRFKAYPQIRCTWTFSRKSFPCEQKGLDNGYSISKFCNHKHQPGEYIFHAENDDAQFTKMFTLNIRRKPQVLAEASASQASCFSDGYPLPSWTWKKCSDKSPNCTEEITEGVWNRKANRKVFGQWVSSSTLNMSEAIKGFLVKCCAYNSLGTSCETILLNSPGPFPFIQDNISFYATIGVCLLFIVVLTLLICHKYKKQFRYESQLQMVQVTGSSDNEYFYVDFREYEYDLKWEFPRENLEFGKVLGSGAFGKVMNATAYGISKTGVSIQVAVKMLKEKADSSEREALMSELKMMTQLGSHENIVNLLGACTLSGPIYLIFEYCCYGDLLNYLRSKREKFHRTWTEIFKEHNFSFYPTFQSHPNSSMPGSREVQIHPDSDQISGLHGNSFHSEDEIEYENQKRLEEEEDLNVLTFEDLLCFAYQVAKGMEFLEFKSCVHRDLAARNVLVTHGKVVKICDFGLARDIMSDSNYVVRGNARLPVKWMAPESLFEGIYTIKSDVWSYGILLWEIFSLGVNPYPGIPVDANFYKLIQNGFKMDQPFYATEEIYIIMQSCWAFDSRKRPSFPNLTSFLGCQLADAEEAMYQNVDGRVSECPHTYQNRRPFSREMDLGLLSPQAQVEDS
The experiment can be described thus: flow cytometry, hybridoma supernatant on REH cells; same table: unstained 1292, secondary Ab alone 6905 (0.78%), isotype 13307 (12%). (A flow cytometer gives signals particle by particle.)

Experiment [2] addresses T2, FLT3/FLK2 antigen (as used for Table 6) (human, UniProt P36888 27-541, limits assumed).
T2 construct: also called human FLT3/FLK2 receptor protein
T2 sequence (looked up): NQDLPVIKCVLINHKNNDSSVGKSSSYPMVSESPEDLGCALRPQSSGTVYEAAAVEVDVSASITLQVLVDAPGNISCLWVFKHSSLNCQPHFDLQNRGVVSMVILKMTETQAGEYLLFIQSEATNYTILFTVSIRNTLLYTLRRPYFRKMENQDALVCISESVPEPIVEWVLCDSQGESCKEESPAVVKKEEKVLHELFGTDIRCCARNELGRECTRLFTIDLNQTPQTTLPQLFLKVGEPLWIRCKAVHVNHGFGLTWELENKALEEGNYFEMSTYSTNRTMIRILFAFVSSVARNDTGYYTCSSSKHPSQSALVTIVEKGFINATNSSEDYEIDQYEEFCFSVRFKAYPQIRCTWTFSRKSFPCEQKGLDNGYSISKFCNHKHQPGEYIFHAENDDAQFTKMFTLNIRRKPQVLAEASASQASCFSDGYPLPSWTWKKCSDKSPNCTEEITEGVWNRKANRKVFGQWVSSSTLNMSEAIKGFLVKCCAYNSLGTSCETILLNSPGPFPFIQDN
The experiment can be described thus: kinetic fit, method not stated (Table 6).

Experiment [3] deals with T1, human FLT3/FLK2 receptor protein. The experiment can be described thus: flow cytometry, purified antibody on SP2/0 cells expressing human FLT3/FLK2; same table: unstained 6063, secondary Ab 9522, isotype 11518.
Experiment [4] has the same target. The experiment can be described thus: flow cytometry titration on REH cells, MFI against antibody concentration; the box prints no unit, the axis is printed 'mg/ml', the text gives ng/ml. As for the experimental part: (§1) Specificity of the monoclonal antibodies was determined by evaluating their affinity to the FLT3/FLK2 antigen. To define affinity of the anti-human FLT3/FLK2 antibodies, an Effective Concentration (EC) curve was built using flow cytometry. Nine monoclonal antibody clones were used to stain human REH cells that endogenously express human FLT3/FLK2. The concentration of the clones ranged from 1 ng/ml (6.25 pM) to 10,000 ng/ml (62.5 nM). […] The sequences of the clones are shown below.

For experiment [5] the target is unchanged. The experiment can be described thus: flow cytometry titration on REH cells; axis printed 'mg/ml', the text gives ng/ml. As for the experimental part: as §1
The target is the same in experiment [6]. The experiment can be described thus: flow cytometry titration on REH cells, MFI against antibody concentration; the box prints no unit, the axis is printed 'mg/ml', the text gives ng/ml; clone taken from the legend paragraph 65 (FIG. 5E: Ab1-18New). As for the experimental part: as §1

In general, Kd refers to the constant that tells how readily two partners part at equilibrium. The term koff denotes the rate constant with which the complex falls apart. A word on the kon: it is the second-order rate constant of association. Read a low kon as slower complex formation. What is called EC50 is the concentration needed to bring the measured effect to its halfway point. A low value points to greater potency. In general, EC50 (read off the curve) refers to the concentration that produces a half-maximal response. The low end stands for a more potent agent, the high end for a less potent agent.

B1: MHC1696-2-8IA (antibody, V domains shown)
VH: EIQLQQSGPELVKPGASVKVSCKASGYSFIDYNMYWVKQSHGKSLEWIGYINPYNGGTSNNQKFKDKATLTVDKSSSTAFMHLNSLTSEDSAVYYCARGTTGDYWGQGTTLTVSS
VL: DTVLTQSPATLSVTPGDSVSLSCRASQSISNNLHWYQQKSHESPRLLIKYGFQSISGIPSRFSGSGSGTDFTLRINSVETEDFGMYFCQQTNSWPLTFGAGTKLELK
notes: Mouse hybridoma monoclonal antibody; also called A281A
In the case of B1, in experiment [1], the “% POSITIVE CELLS” value came to 30% and the “MFI (IgC FITC)” value is 11000. In experiment [2], this molecule displayed a Kd of 0.0503 nM, a koff of 0.000111 s⁻¹ and a kon of 2.21e+06 M⁻¹ s⁻¹. In experiment [3], this molecule returned an MFI of 128000. Moreover, in experiment [4], a half-maximal effect (EC50) was put at 0.0902 µg/mL. The half-maximal effective concentration (EC50 (read off the curve)) in experiment [5] is around 0.1 µg/mL.

B2: MHC1693-3-16HA (antibody, V domains shown)
VH: EVQLQQSGAELVRPGALVKLSCKGSGFNIKDYYIHWVKQRPEQGLEWIGRIDPENDITMYDPKFQGKASITADTSSNTAYLQLSSLTSEDTAVYYCARNGNFFAYWGQGTLVTVSA
VL: not shown
notes: Mouse hybridoma monoclonal antibody; also called Ab3-16HA
As to B2, in experiment [1], the “% POSITIVE CELLS” value came out at 57% and the “MFI (IgC FITC)” value turned out to be 15200. This molecule also returned an MFI in experiment [3] of 206000.

B3: MHC1695-3-30A (antibody, V domains shown)
VH: QVTLKESGPGILQPSQTLSLTCSFSGFSLSTSHMGVGWIRQPSGKGLEWLLHILWNDSVYYNPALKSRLTISKDTYNKQVFLKIANVDTADTATYYCARIVYYGISYVGYFDVWGAGTTVTVSS
VL: DIQMTQSPSSLSASLGERVSLTCRASQEISGYLSWLQQKPDGTIKRLIYAASTLNSGVPRRFSGSRSGSDYSLTISSLESEDFADYYCLQYASYPFTFGSGTKLEIK
notes: Mouse hybridoma monoclonal antibody
For the molecule B3, in experiment [1], the “% POSITIVE CELLS” value turned out to be 48% and the “MFI (IgC FITC)” value came out at 13000. The molecule also came in with an MFI in experiment [3] of 151000. Moreover, the “EC50 (read off the curve)” value in experiment [5] was around 1 µg/mL.

B4: MHC1692-1-23DA (antibody, V domains shown)
VH: QVTLKESGPGILQPSQTLSLTCSFSGFSLSTSTMGVGWIRQPSGKGLEWLLHILWNDSKYYNPALKSRLTISKDTYNKQVFLKIANVDTADTATYYCARIVYYSTYVGYFDVWGAGTTVTVSS
VL: DIQMTQSPSSLSASLGERVSLTCRASQEISGYLSWLQQKPDGTIKRLIYAASTLHSGVPKRFSGSRSGSDYSLTISRLESEDVADYYCLQYASYPFTFGSGTKLEIR
notes: Mouse hybridoma monoclonal antibody (detected with anti-mouse IgG); also called Ab1-23DA
As for B4, in experiment [1], the “% POSITIVE CELLS” value amounted to 49% and the “MFI (IgC FITC)” value turned out to be 13300. Besides, the MFI in experiment [3] was 119000. In experiment [4], this molecule yielded an EC50 of 0.0701 µg/mL. Also, the half-maximal effective concentration (EC50 (read off the curve)) in experiment [5] is around 0.06 µg/mL.

B5: MHC1694-1-18BA (antibody, V domains shown)
VH: QVTLKESGPGILQPSQTLSLTCSFSGFSLSTSTMGVGWIRQPSGKGLEWLLHILWNDSKYYNPALKSRLTISKDTYNKQVFLKIANVDTADTATYYCARIVYYSTYVGYFDVWGAGTTVTVSS
VL: DIQMTQSPSSLSASLGERVSLTCRASQEISGYLSWLQQKPDGTIKRLIYAASTLHSGVPKRFSGSRSGSDYSLTISRLESEDVADYYCLQYASYPFTFGSGTKLEIR
notes: Mouse hybridoma monoclonal antibody; also called Ab1-18New
B5: in experiment [1], the “% POSITIVE CELLS” value turned out to be 58% and the “MFI (IgC FITC)” value was determined as 14700. In experiment [2], binding was characterised by a dissociation constant (Kd) of 0.00576 nM, the koff was found to be 1.42e-05 s⁻¹ and the kon amounted to 2.46e+06 M⁻¹ s⁻¹. The EC50 in experiment [6] is 0.0788 µg/mL. The concentration for a half-maximal effect (EC50 (read off the curve)) in experiment [5] was around 0.08 µg/mL.
